# B1: CR9505 (an antibody based on 131-2G, comprising the heavy and light chain variable region of 131-2G, as disclosed in WO 2009/055711) (antibody, from another filing, V domains shown)
# VH: EVQLQQSGPELVKPGTSVKISCKASGYSFTGFTMNWVKQSHGKNLEWFGLINPFNGNTGYNQKFKGKATLTVDKSSSTAFMELLSLTSEDSAVYYCARSGKSYDYEAWFTYWGQGTLVTVSA
# VL: DIVMTQTTLSLPVSLGNQASISCRSSQTIVHTNGNTYLEWYLQKPGQSPKLLIYKVSNRFSGVPDRFSGSGSGTDFILNISRVEAEDLGVYYCFQGSHVPFTFGSGTKLEIKR
# Target: G protein of RSV A/Long (ATCC Cat. No. VR-26), on virus (Respiratory syncytial virus A/Long) (UniProt P20895)
# Sequence (P20895 whole entry): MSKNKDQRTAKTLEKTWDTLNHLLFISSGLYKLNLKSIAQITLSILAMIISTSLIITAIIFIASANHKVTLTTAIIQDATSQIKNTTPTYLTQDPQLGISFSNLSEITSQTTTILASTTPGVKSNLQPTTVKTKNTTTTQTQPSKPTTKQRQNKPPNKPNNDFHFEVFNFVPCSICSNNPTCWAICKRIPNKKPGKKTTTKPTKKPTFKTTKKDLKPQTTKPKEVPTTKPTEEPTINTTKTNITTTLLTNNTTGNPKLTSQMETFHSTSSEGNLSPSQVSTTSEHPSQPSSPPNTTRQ
# Experiment: cell-based or functional assay
binder,measurement,value
B1,"Neutralization IC50, plaque reduction assay, RSV A/Long",0.018 µg/mL

# — US20160145322A1
